Substrate in data set [1]: O=CC(=O)O
In words: spectrophotometric assay of pyruvate, coupled lactate dehydrogenase. In kind it is biochemical, Homo sapiens. The note with it: saturating L-alanine as co-substrate; saturating PLP.

The data set “dynamic light scattering” deals with the molecule itself. Kind of data set: dynamic light scattering.
Substrate in data set [2]: C[C@H](N)C(=O)O
Kind of data set: spectrophotometric assay of pyruvate, coupled lactate dehydrogenase. Format: biochemical, Homo sapiens. The note with it: saturating glyoxylate as co-substrate; saturating PLP.

The text below walks through data of PMC3271384 (Molecular Genetics and Metabolism, 2012).

B1: AGT-Mi (Homo sapiens; G161S/I340M/P11L) (protein)
chain: MASHKLLVTPLKALLKPLSIPNQLLLGPGPSNLPPRIMAAGGLQMIGSMSKDMYQIMDEIKEGIQYVFQTRNPLTLVISGSGHCALEAALVNVLEPGDSFLVGANGIWGQRAVDIGERIGARVHPMTKDPGGHYTLQEVEEGLAQHKPVLLFLTHGESSTSVLQPLDGFGELCHRYKCLLLVDSVASLGGTPLYMDRQGIDILYSGSQKALNAPPGTSLISFSDKAKKKMYSRKTKPFSFYLDIKWLANFWGCDDQPRMYHHTIPVISLYSLRESLALIAEQGLENSWRQHREAAAYLHGRLQALGLQLFVKDPALRLPTVTTVAVPAGYDWRDIVSYVMDHFDIEIMGGLGPSTGKVLRIGLLGCNATRENVDRVTEALRAALQHCPKKKL
As usually defined, the Km is the substrate concentration at which the rate is half of its maximum. What is called kcat is the number of substrate molecules converted per active site and unit of time at saturation. For orientation: kcat/Km means the second-order rate constant that governs catalysis at low substrate concentration. In the case of B1, in data set [1], the Km came to 630 ± 70 µM, the catalytic constant (kcat) was found to be 58 ± 2 s⁻¹ and the kcat/Km turned out to be 92000 ± 2000 M⁻¹ s⁻¹.

B2: AGT-Ma (Homo sapiens; P319L) (protein)
chain: MASHKLLVTPPKALLKPLSIPNQLLLGPGPSNLPPRIMAAGGLQMIGSMSKDMYQIMDEIKEGIQYVFQTRNPLTLVISGSGHCALEAALVNVLEPGDSFLVGANGIWGQRAVDIGERIGARVHPMTKDPGGHYTLQEVEEGLAQHKPVLLFLTHGESSTGVLQPLDGFGELCHRYKCLLLVDSVASLGGTPLYMDRQGIDILYSGSQKALNAPPGTSLISFSDKAKKKMYSRKTKPFSFYLDIKWLANFWGCDDQPRMYHHTIPVISLYSLRESLALIAEQGLENSWRQHREAAAYLHGRLQALGLQLFVKDPALRLLTVTTVAVPAGYDWRDIVSYVIDHFDIEIMGGLGPSTGKVLRIGLLGCNATRENVDRVTEALRAALQHCPKKKL
For the protein B2, in data set [1], the Michaelis-Menten constant (Km) was 110 ± 20 µM, the kcat amounted to 26.2 ± 0.7 s⁻¹ and the kcat/Km stood at 238000 ± 44000 M⁻¹ s⁻¹.

B3: alanine:glyoxylate aminotransferase variant G350D on the minor allele (enzyme, human, UniProt P21549 1-392, looked up)
chain: MASHKLLVTPLKALLKPLSIPNQLLLGPGPSNLPPRIMAAGGLQMIGSMSKDMYQIMDEIKEGIQYVFQTRNPLTLVISGSGHCALEAALVNVLEPGDSFLVGANGIWGQRAVDIGERIGARVHPMTKDPGGHYTLQEVEEGLAQHKPVLLFLTHGESSTGVLQPLDGFGELCHRYKCLLLVDSVASLGGTPLYMDRQGIDILYSGSQKALNAPPGTSLISFSDKAKKKMYSRKTKPFSFYLDIKWLANFWGCDDQPRMYHHTIPVISLYSLRESLALIAEQGLENSWRQHREAAAYLHGRLQALGLQLFVKDPALRLPTVTTVAVPAGYDWRDIVSYVMDHFDIEIMGDLGPSTGKVLRIGLLGCNATRENVDRVTEALRAALQHCPKKKL
modifications: holo-form: pyridoxal 5'-phosphate in Schiff base linkage with the lysine at position 209; apo-form: without PLP
As usually defined, the stoichiometry N is a count of units in the complex or per binding partner. As for B3, in “dynamic light scattering”, the “stoichiometry N” value worked out at 2.

B4: alanine:glyoxylate aminotransferase variant S218L on the major allele (enzyme, human, UniProt P21549 1-392, looked up)
chain: MASHKLLVTPPKALLKPLSIPNQLLLGPGPSNLPPRIMAAGGLQMIGSMSKDMYQIMDEIKEGIQYVFQTRNPLTLVISGSGHCALEAALVNVLEPGDSFLVGANGIWGQRAVDIGERIGARVHPMTKDPGGHYTLQEVEEGLAQHKPVLLFLTHGESSTGVLQPLDGFGELCHRYKCLLLVDSVASLGGTPLYMDRQGIDILYSGSQKALNAPPGTLLISFSDKAKKKMYSRKTKPFSFYLDIKWLANFWGCDDQPRMYHHTIPVISLYSLRESLALIAEQGLENSWRQHREAAAYLHGRLQALGLQLFVKDPALRLPTVTTVAVPAGYDWRDIVSYVIDHFDIEIMGGLGPSTGKVLRIGLLGCNATRENVDRVTEALRAALQHCPKKKL
modifications: holo-form: pyridoxal 5'-phosphate in Schiff base linkage with the lysine at position 209; apo-form: without PLP
For the protein B4, the “stoichiometry N” value in “dynamic light scattering” was determined as 2.

B5: AGT-Ma (Homo sapiens; S218L) (protein)
chain: MASHKLLVTPPKALLKPLSIPNQLLLGPGPSNLPPRIMAAGGLQMIGSMSKDMYQIMDEIKEGIQYVFQTRNPLTLVISGSGHCALEAALVNVLEPGDSFLVGANGIWGQRAVDIGERIGARVHPMTKDPGGHYTLQEVEEGLAQHKPVLLFLTHGESSTGVLQPLDGFGELCHRYKCLLLVDSVASLGGTPLYMDRQGIDILYSGSQKALNAPPGTLLISFSDKAKKKMYSRKTKPFSFYLDIKWLANFWGCDDQPRMYHHTIPVISLYSLRESLALIAEQGLENSWRQHREAAAYLHGRLQALGLQLFVKDPALRLPTVTTVAVPAGYDWRDIVSYVIDHFDIEIMGGLGPSTGKVLRIGLLGCNATRENVDRVTEALRAALQHCPKKKL
B5: in data set [2], the Km is 29000 ± 6000 µM, the kcat came to 2.7 ± 0.1 s⁻¹ and the kcat/Km is 90 ± 20 M⁻¹ s⁻¹.

B6: alanine:glyoxylate aminotransferase variant G161S on the minor allele (enzyme, human, UniProt P21549 1-392, looked up)
chain: MASHKLLVTPLKALLKPLSIPNQLLLGPGPSNLPPRIMAAGGLQMIGSMSKDMYQIMDEIKEGIQYVFQTRNPLTLVISGSGHCALEAALVNVLEPGDSFLVGANGIWGQRAVDIGERIGARVHPMTKDPGGHYTLQEVEEGLAQHKPVLLFLTHGESSTSVLQPLDGFGELCHRYKCLLLVDSVASLGGTPLYMDRQGIDILYSGSQKALNAPPGTSLISFSDKAKKKMYSRKTKPFSFYLDIKWLANFWGCDDQPRMYHHTIPVISLYSLRESLALIAEQGLENSWRQHREAAAYLHGRLQALGLQLFVKDPALRLPTVTTVAVPAGYDWRDIVSYVMDHFDIEIMGGLGPSTGKVLRIGLLGCNATRENVDRVTEALRAALQHCPKKKL
modifications: holo-form: pyridoxal 5'-phosphate in Schiff base linkage with the lysine at position 209; apo-form: without PLP
For B6, the “stoichiometry N” value in the data set “dynamic light scattering” was 2.

B7: alanine:glyoxylate aminotransferase variant S158L on the major allele (enzyme, human, UniProt P21549 1-392, looked up)
chain: MASHKLLVTPPKALLKPLSIPNQLLLGPGPSNLPPRIMAAGGLQMIGSMSKDMYQIMDEIKEGIQYVFQTRNPLTLVISGSGHCALEAALVNVLEPGDSFLVGANGIWGQRAVDIGERIGARVHPMTKDPGGHYTLQEVEEGLAQHKPVLLFLTHGELSTGVLQPLDGFGELCHRYKCLLLVDSVASLGGTPLYMDRQGIDILYSGSQKALNAPPGTSLISFSDKAKKKMYSRKTKPFSFYLDIKWLANFWGCDDQPRMYHHTIPVISLYSLRESLALIAEQGLENSWRQHREAAAYLHGRLQALGLQLFVKDPALRLPTVTTVAVPAGYDWRDIVSYVIDHFDIEIMGGLGPSTGKVLRIGLLGCNATRENVDRVTEALRAALQHCPKKKL
modifications: holo-form: pyridoxal 5'-phosphate in Schiff base linkage with the lysine at position 209; apo-form: without PLP
For B7, the “stoichiometry N” value in “dynamic light scattering” was determined as 2.

B8: alanine:glyoxylate aminotransferase variant G161C on the minor allele (enzyme, human, UniProt P21549 1-392, looked up)
chain: MASHKLLVTPLKALLKPLSIPNQLLLGPGPSNLPPRIMAAGGLQMIGSMSKDMYQIMDEIKEGIQYVFQTRNPLTLVISGSGHCALEAALVNVLEPGDSFLVGANGIWGQRAVDIGERIGARVHPMTKDPGGHYTLQEVEEGLAQHKPVLLFLTHGESSTCVLQPLDGFGELCHRYKCLLLVDSVASLGGTPLYMDRQGIDILYSGSQKALNAPPGTSLISFSDKAKKKMYSRKTKPFSFYLDIKWLANFWGCDDQPRMYHHTIPVISLYSLRESLALIAEQGLENSWRQHREAAAYLHGRLQALGLQLFVKDPALRLPTVTTVAVPAGYDWRDIVSYVMDHFDIEIMGGLGPSTGKVLRIGLLGCNATRENVDRVTEALRAALQHCPKKKL
modifications: holo-form: pyridoxal 5'-phosphate in Schiff base linkage with the lysine at position 209; apo-form: without PLP
As for B8, the “stoichiometry N” value in “dynamic light scattering” is 2.

B9: alanine:glyoxylate aminotransferase variant D183N on the major allele (enzyme, human, UniProt P21549 1-392, looked up)
chain: MASHKLLVTPPKALLKPLSIPNQLLLGPGPSNLPPRIMAAGGLQMIGSMSKDMYQIMDEIKEGIQYVFQTRNPLTLVISGSGHCALEAALVNVLEPGDSFLVGANGIWGQRAVDIGERIGARVHPMTKDPGGHYTLQEVEEGLAQHKPVLLFLTHGESSTGVLQPLDGFGELCHRYKCLLLVNSVASLGGTPLYMDRQGIDILYSGSQKALNAPPGTSLISFSDKAKKKMYSRKTKPFSFYLDIKWLANFWGCDDQPRMYHHTIPVISLYSLRESLALIAEQGLENSWRQHREAAAYLHGRLQALGLQLFVKDPALRLPTVTTVAVPAGYDWRDIVSYVIDHFDIEIMGGLGPSTGKVLRIGLLGCNATRENVDRVTEALRAALQHCPKKKL
modifications: holo-form: pyridoxal 5'-phosphate in Schiff base linkage with the lysine at position 209; apo-form: without PLP
Turning to B9, in “dynamic light scattering”, the “stoichiometry N” value stood at 2.

B10: alanine:glyoxylate aminotransferase variant W108R on the minor allele (enzyme, human, UniProt P21549 1-392, looked up)
chain: MASHKLLVTPLKALLKPLSIPNQLLLGPGPSNLPPRIMAAGGLQMIGSMSKDMYQIMDEIKEGIQYVFQTRNPLTLVISGSGHCALEAALVNVLEPGDSFLVGANGIRGQRAVDIGERIGARVHPMTKDPGGHYTLQEVEEGLAQHKPVLLFLTHGESSTGVLQPLDGFGELCHRYKCLLLVDSVASLGGTPLYMDRQGIDILYSGSQKALNAPPGTSLISFSDKAKKKMYSRKTKPFSFYLDIKWLANFWGCDDQPRMYHHTIPVISLYSLRESLALIAEQGLENSWRQHREAAAYLHGRLQALGLQLFVKDPALRLPTVTTVAVPAGYDWRDIVSYVMDHFDIEIMGGLGPSTGKVLRIGLLGCNATRENVDRVTEALRAALQHCPKKKL
modifications: holo-form: pyridoxal 5'-phosphate in Schiff base linkage with the lysine at position 209; apo-form: without PLP
For the protein B10, the “stoichiometry N” value in “dynamic light scattering” was 2.

B11: alanine:glyoxylate aminotransferase variant S187F on the major allele (enzyme, human, UniProt P21549 1-392, looked up)
chain: MASHKLLVTPPKALLKPLSIPNQLLLGPGPSNLPPRIMAAGGLQMIGSMSKDMYQIMDEIKEGIQYVFQTRNPLTLVISGSGHCALEAALVNVLEPGDSFLVGANGIWGQRAVDIGERIGARVHPMTKDPGGHYTLQEVEEGLAQHKPVLLFLTHGESSTGVLQPLDGFGELCHRYKCLLLVDSVAFLGGTPLYMDRQGIDILYSGSQKALNAPPGTSLISFSDKAKKKMYSRKTKPFSFYLDIKWLANFWGCDDQPRMYHHTIPVISLYSLRESLALIAEQGLENSWRQHREAAAYLHGRLQALGLQLFVKDPALRLPTVTTVAVPAGYDWRDIVSYVIDHFDIEIMGGLGPSTGKVLRIGLLGCNATRENVDRVTEALRAALQHCPKKKL
modifications: holo-form: pyridoxal 5'-phosphate in Schiff base linkage with the lysine at position 209; apo-form: without PLP
Take B11: the “stoichiometry N” value in “dynamic light scattering” was determined as 2.

B12: alanine:glyoxylate aminotransferase variant P319L on the major allele (enzyme, human, UniProt P21549 1-392, looked up)
chain: MASHKLLVTPPKALLKPLSIPNQLLLGPGPSNLPPRIMAAGGLQMIGSMSKDMYQIMDEIKEGIQYVFQTRNPLTLVISGSGHCALEAALVNVLEPGDSFLVGANGIWGQRAVDIGERIGARVHPMTKDPGGHYTLQEVEEGLAQHKPVLLFLTHGESSTGVLQPLDGFGELCHRYKCLLLVDSVASLGGTPLYMDRQGIDILYSGSQKALNAPPGTSLISFSDKAKKKMYSRKTKPFSFYLDIKWLANFWGCDDQPRMYHHTIPVISLYSLRESLALIAEQGLENSWRQHREAAAYLHGRLQALGLQLFVKDPALRLLTVTTVAVPAGYDWRDIVSYVIDHFDIEIMGGLGPSTGKVLRIGLLGCNATRENVDRVTEALRAALQHCPKKKL
modifications: holo-form: pyridoxal 5'-phosphate in Schiff base linkage with the lysine at position 209; apo-form: without PLP
Regarding B12, the “stoichiometry N” value in the data set “dynamic light scattering” was found to be 2.
